Results reported in patent US20230114801A1 (SYSTIMMUNE, published 2023).

Columns and labels:
human CD3 [1] = target: T1, human CD3 (human, UniProt P07766 23-126; P04234 22-105); test: BLI (Octet), binder on AHC sensor, 100 nM human CD3, 1:1 fit
T1 construct: also called His-tagged human CD3; human CD3 (Acro CDD-H52W1)

human EGFR [2] = target: T2, human EGFR (human, UniProt P00533 25-645, limits assumed); test: BLI (Octet), binder on AHC sensor, 200 nM human EGFR, 1:1 fit
T2 construct: Soluble antigen in Octet; construct not described

human HER3 = target: T3, human HER3 (human, UniProt P21860 20-643); test: BLI (Octet), binder on AHC sensor, 100 nM human antigen, 1:1 fit
T3 construct: Soluble antigen in Octet; bought; also called human HER3 (Acro ER3-H5223)

human EGFR [3] = target: T2, human EGFR; test: as above
human CD3 [4] = target: T1, human CD3; test: as above

| Binder | Kd (human CD3 [1]) | Kd (human EGFR [2]) | Kd (human HER3) | Kd (human EGFR [3]) | Kd (human CD3 [4]) |
| --- | --- | --- | --- | --- | --- |
| SI-75X13 (bispecific antibody, human IgG1, kappa, L234A L235A, bi-miniGNC; D3 αCD3* (Fab), D4 αEGFR VHH) chain 1: QVQLQESGGRLVQPGEPLSLTCKTSGIDLSSNAIGWVRQAPGKGLEWIGVIFGSGNTYYASWAKGRFTISRSTSTVYLKMNSLRSEDTAIYYCARGGYSSDIWGQGTLVTVSSASTKGPSVFPLAPSSKSTSGGTAALGCLVKDYFPEPVTVSWNSGALTSGVHTFPAVLQSSGLYSLSSVVTVPSSSLGTQTYICNVNHKPSNTKVDKRVEPKSCDKTHTCPPCPAPEAAGGPSVFLFPPKPKDTLMISRTPEVTCVVVDVSHEDPEVKFNWYVDGVEVHNAKTKPREEQYNSTYRVVSVLTVLHQDWLNGKEYKCAVSNKALPAPIEKTISKAKGQPREPQVYTLPPSRDELTKNQVSLSCAVKGFYPSDIAVEWESNGQPENNYKTTPPVLDSDGSFFLVSKLTVDKSRWQQGNVFSCSVMHEALHNHYTQKSLSLSPGGGGGSGGGGSEVQLQESGGGLVQAGDSLSLSCLVSGRSFNSYTMGWFRQAPGKEREFVAAILWSGPTTYYADSVKGRFTISRDNAKNTVYLQMNSLKPEDTAVYYCAAALGVLVLAPGNVYSYWGQGTQVTVSS chain 2: DPQLTQSPSSLSATVGQRVTINCQSSQSVAKNNNLAWFQQKPGKPPKLLIYSASTLAAGVPSRFSGSGSGTQFTLTITRVQSEDFATYYCSARDSGNIQSFGGGTRVEIKRTVAAPSVFIFPPSDEQLKSGTASVVCLLNNFYPREAKVQWKVDNALQSGNSQESVTEQDSKDSTYSLSSTLTLSKADYEKHKVYACEVTHQGLSSPVTKSFNRGECGGDKTHTCPPCPAPEAAGGPSVFLFPPKPKDTLMISRTPEVTCVVVDVSHEDPEVKFNWYVDGVEVHNAKTKPREEQYNSTYRVVSVLTVLHQDWLNGKEYKCAVSNKALPAPIEKTISKAKGQPREPQVYTLPPSRDELTKNQVSLWCLVKGFYPSDIAVEWESNGQPENNYKTTPPVLDSDGSFFLYSKLTVDKSRWQQGNVFSCSVMHEALHNRFTQKSLSLSPG | 56 nM | 34 nM |  |  |  |
| SI-75X16 (other, tri-miniGNC; D1 αEGFR, D2 αHER3, D3 αCD3* (Fab)) chain 1: EIVLTQSPSTLSVSPGERATFSCRASQSIGTNIHWYQQKPGKPPRLLIKYASESISGIPDRFSGSGSGTEFTLTISSVQSEDFAVYYCQQNNNWPTTFGPGTKLTVLGGGGSGGGGSGGGGSGGGGSQVQLQQSGPGLVKPSETLSITCTVSGFSLTNYGVHWIRQAPGKGLEWLGVIWSGGNTDYNTPFTSRFTITKDNSKNQVYFKLRSVRADDTAIYYCARALTYYDYEFAYWGQGTLVTVSSGGGGSGGGGSQVQLQESGGRLVQPGEPLSLTCKTSGIDLSSNAIGWVRQAPGKGLEWIGVIFGSGNTYYASWAKGRFTISRSTSTVYLKMNSLRSEDTAIYYCARGGYSSDIWGQGTLVTVSSASTKGPSVFPLAPSSKSTSGGTAALGCLVKDYFPEPVTVSWNSGALTSGVHTFPAVLQSSGLYSLSSVVTVPSSSLGTQTYICNVNHKPSNTKVDKRVEPKSCDKTHTCPPCPAPEAAGGPSVFLFPPKPKDTLMISRTPEVTCVVVDVSHEDPEVKFNWYVDGVEVHNAKTKPREEQYNSTYRVVSVLTVLHQDWLNGKEYKCAVSNKALPAPIEKTISKAKGQPREPQVYTLPPSRDELTKNQVSLSCAVKGFYPSDIAVEWESNGQPENNYKTTPPVLDSDGSFFLVSKLTVDKSRWQQGNVFSCSVMHEALHNHYTQKSLSLSPG chain 2: QSALTQPASVSGSPGQSITISCTGTSSDVGGYNFVSWYQQHPGKAPKLMIYDVSDRPSGVSDRFSGSKSGNTASLIISGLQADDEADYYCSSYGSSSTHVIFGGGTKVTVLGGGGSGGGGSGGGGSGGGGSQVQLQESGGGLVKPGGSLSLSCAASGFTFSSYWMSWVRQAPGKGLEWVANINRDGSASYYVDSVKGRFTISRDDAKNSLYLQMNSLRAEDTAVYYCARDRGVGYFDLWGRGTLVTVSSGGGGSGGGGSDPQLTQSPSSLSATVGQRVTINCQSSQSVAKNNNLAWFQQKPGKPPKLLIYSASTLAAGVPSRFSGSGSGTQFTLTITRVQSEDFATYYCSARDSGNIQSFGGGTRVEIKRTVAAPSVFIFPPSDEQLKSGTASVVCLLNNFYPREAKVQWKVDNALQSGNSQESVTEQDSKDSTYSLSSTLTLSKADYEKHKVYACEVTHQGLSSPVTKSFNRGECGGDKTHTCPPCPAPEAAGGPSVFLFPPKPKDTLMISRTPEVTCVVVDVSHEDPEVKFNWYVDGVEVHNAKTKPREEQYNSTYRVVSVLTVLHQDWLNGKEYKCAVSNKALPAPIEKTISKAKGQPREPQVYTLPPSRDELTKNQVSLWCLVKGFYPSDIAVEWESNGQPENNYKTTPPVLDSDGSFFLYSKLTVDKSRWQQGNVFSCSVMHEALHNRFTQKSLSLSPG |  |  | 113 nM | 6.8 nM | 33.4 nM |
| SI-75X18 (other, tri-miniGNC; D3 αCD3* (Fab), D4 αEGFR, D5 αHER3) chain 1: QVQLQESGGRLVQPGEPLSLTCKTSGIDLSSNAIGWVRQAPGKGLEWIGVIFGSGNTYYASWAKGRFTISRSTSTVYLKMNSLRSEDTAIYYCARGGYSSDIWGQGTLVTVSSASTKGPSVFPLAPSSKSTSGGTAALGCLVKDYFPEPVTVSWNSGALTSGVHTFPAVLQSSGLYSLSSVVTVPSSSLGTQTYICNVNHKPSNTKVDKRVEPKSCDKTHTCPPCPAPEAAGGPSVFLFPPKPKDTLMISRTPEVTCVVVDVSHEDPEVKFNWYVDGVEVHNAKTKPREEQYNSTYRVVSVLTVLHQDWLNGKEYKCAVSNKALPAPIEKTISKAKGQPREPQVYTLPPSRDELTKNQVSLSCAVKGFYPSDIAVEWESNGQPENNYKTTPPVLDSDGSFFLVSKLTVDKSRWQQGNVFSCSVMHEALHNHYTQKSLSLSPGGGGGSGGGGSQVQLQQSGPGLVKPSETLSITCTVSGFSLTNYGVHWIRQAPGKGLEWLGVIWSGGNTDYNTPFTSRFTITKDNSKNQVYFKLRSVRADDTAIYYCARALTYYDYEFAYWGQGTLVTVSSGGGGSGGGGSGGGGSGGGGSEIVLTQSPSTLSVSPGERATFSCRASQSIGTNIHWYQQKPGKPPRLLIKYASESISGIPDRFSGSGSGTEFTLTISSVQSEDFAVYYCQQNNNWPTTFGPGTKLTVL chain 2: DPQLTQSPSSLSATVGQRVTINCQSSQSVAKNNNLAWFQQKPGKPPKLLIYSASTLAAGVPSRFSGSGSGTQFTLTITRVQSEDFATYYCSARDSGNIQSFGGGTRVEIKRTVAAPSVFIFPPSDEQLKSGTASVVCLLNNFYPREAKVQWKVDNALQSGNSQESVTEQDSKDSTYSLSSTLTLSKADYEKHKVYACEVTHQGLSSPVTKSFNRGECGGDKTHTCPPCPAPEAAGGPSVFLFPPKPKDTLMISRTPEVTCVVVDVSHEDPEVKFNWYVDGVEVHNAKTKPREEQYNSTYRVVSVLTVLHQDWLNGKEYKCAVSNKALPAPIEKTISKAKGQPREPQVYTLPPSRDELTKNQVSLWCLVKGFYPSDIAVEWESNGQPENNYKTTPPVLDSDGSFFLYSKLTVDKSRWQQGNVFSCSVMHEALHNRFTQKSLSLSPGGGGGSGGGGSQVQLQESGGGLVKPGGSLSLSCAASGFTFSSYWMSWVRQAPGKGLEWVANINRDGSASYYVDSVKGRFTISRDDAKNSLYLQMNSLRAEDTAVYYCARDRGVGYFDLWGRGTLVTVSSGGGGSGGGGSGGGGSQSALTQPASVSGSPGQSITISCTGTSSDVGGYNFVSWYQQHPGKAPKLMIYDVSDRPSGVSDRFSGSKSGNTASLIISGLQADDEADYYCSSYGSSSTHVIFGGGTKVTVL |  |  | 93.8 nM | 2.72 nM | 47.3 nM |
| SI-75X11 (bispecific antibody, human IgG1, kappa, L234A L235A, bi-miniGNC; D1 αEGFR VHH, D3 αCD3* (Fab)) chain 1: EVQLQESGGGLVQAGDSLSLSCLVSGRSFNSYTMGWFRQAPGKEREFVAAILWSGPTTYYADSVKGRFTISRDNAKNTVYLQMNSLKPEDTAVYYCAAALGVLVLAPGNVYSYWGQGTQVTVSSGGGGSGGGGSQVQLQESGGRLVQPGEPLSLTCKTSGIDLSSNAIGWVRQAPGKGLEWIGVIFGSGNTYYASWAKGRFTISRSTSTVYLKMNSLRSEDTAIYYCARGGYSSDIWGQGTLVTVSSASTKGPSVFPLAPSSKSTSGGTAALGCLVKDYFPEPVTVSWNSGALTSGVHTFPAVLQSSGLYSLSSVVTVPSSSLGTQTYICNVNHKPSNTKVDKRVEPKSCDKTHTCPPCPAPEAAGGPSVFLFPPKPKDTLMISRTPEVTCVVVDVSHEDPEVKFNWYVDGVEVHNAKTKPREEQYNSTYRVVSVLTVLHQDWLNGKEYKCAVSNKALPAPIEKTISKAKGQPREPQVYTLPPSRDELTKNQVSLSCAVKGFYPSDIAVEWESNGQPENNYKTTPPVLDSDGSFFLVSKLTVDKSRWQQGNVFSCSVMHEALHNHYTQKSLSLSPG chain 2: DPQLTQSPSSLSATVGQRVTINCQSSQSVAKNNNLAWFQQKPGKPPKLLIYSASTLAAGVPSRFSGSGSGTQFTLTITRVQSEDFATYYCSARDSGNIQSFGGGTRVEIKRTVAAPSVFIFPPSDEQLKSGTASVVCLLNNFYPREAKVQWKVDNALQSGNSQESVTEQDSKDSTYSLSSTLTLSKADYEKHKVYACEVTHQGLSSPVTKSFNRGECGGDKTHTCPPCPAPEAAGGPSVFLFPPKPKDTLMISRTPEVTCVVVDVSHEDPEVKFNWYVDGVEVHNAKTKPREEQYNSTYRVVSVLTVLHQDWLNGKEYKCAVSNKALPAPIEKTISKAKGQPREPQVYTLPPSRDELTKNQVSLWCLVKGFYPSDIAVEWESNGQPENNYKTTPPVLDSDGSFFLYSKLTVDKSRWQQGNVFSCSVMHEALHNRFTQKSLSLSPG | 65.7 nM | 21.6 nM |  |  |  |
